Numbering of substitutions follows the chain as printed. In names and notes the source's numbering stands. Where two headings read alike, the source gives them in different places.
What was measured:
[1] = molecular target: T1, human IL-13 (human, UniProt P35225 35-146, limits assumed); test: AlphaScreen; hIL-13 to hIL-13Rα1-hFc
T1 construct: Biotinylated in the binary complex AlphaScreen; Different commercial lots are kept as one molecule; also called hIL-13; hIL13

[2] = molecular target: T1, human IL-13; test: AlphaScreen; hIL-13:hIL-13Rα1:hIL4Rα ternary complex
[3] = molecular target: T1, human IL-13; test: cell-based or functional assay
[4] = molecular target: T2, cyno IL-13 (cynomolgus monkey, UniProt Q0PW92 21-132); test: cell-based or functional assay
[5] = molecular target: T1, human IL-13; test: cell-based or functional assay; remark: listed apart in the source
[6] = molecular target: T2, cyno IL-13; test: cell-based or functional assay; remark: listed apart in the source
[7] = molecular target: T1, human IL-13; test: AlphaScreen, purified ISVD; hIL-13:hIL-13Rα1:hIL4Rα ternary complex
[8] = molecular target: T1, human IL-13; test: SPR, hIL-13
[9] = molecular target: T1, human IL-13; test: cell-based or functional assay; remark: listed apart in the source
[10] = molecular target: T1, human IL-13; test: AlphaScreen, purified ISVD; hIL-13 to hIL-13Rα1-hFc
[11] = molecular target: T3, cyno IL13-Fc (cynomolgus monkey, UniProt Q0PW92 11-132); test: SPR (ProteOn XPR36), periplasmic extract over immobilised Fc fusion
T3 construct: not shown: Fc part and any linker not described

[12] = molecular target: T4, hIL13-Fc (human, UniProt P35225 25-146); test: as above
T4 construct: not shown: Fc part and any linker not described

[13] = molecular target: T1, human IL-13; test: SPR, hIL-13 from Peprotech (cat nr 200-13)
[14] = molecular target: T1, human IL-13; test: SPR, hIL-13 from Peprotech (cat nr 200-13); remark: listed apart in the source
[15] = molecular target: T1, human IL-13; test: cell-based or functional assay; remark: listed apart in the source
[16] = molecular target: T5, human TSLP (human, UniProt Q969D9 29-159); test: SPR, hTSLP
T5 construct: also called hTSLP; hTSP

[17] = molecular target: T6, cyno TSLP (cynomolgus monkey, UniProt A0A7N9CAT7 29-159); test: SPR, cyno TSLP
T6 construct: also called cynomolgus monkey TSLP

[18] = molecular target: T5, human TSLP; test: AlphaScreen; hTSLP:hTSLPR:hIL7Rα ternary complex
[19] = molecular target: T7, cyno TSLP-Fc (cynomolgus monkey, UniProt A0A7N9CAT7 29-159); test: SPR (ProteOn XPR36), periplasmic extract over immobilised Fc fusion
T7 construct: also called cyno TSLP-hFc; not shown: human Fc part and any linker not described

[20] = molecular target: T8, hTSLP-Fc (human, UniProt Q969D9 29-159); test: as above
T8 construct: also called hTSLP-hFc; hTLSP-Fc; not shown: human Fc part and any linker not described

[21] = molecular target: T7, cyno TSLP-Fc; test: cell-based or functional assay
[22] = molecular target: T8, hTSLP-Fc; test: cell-based or functional assay
[23] = molecular target: T5, human TSLP; test: AlphaScreen, purified ISVD; hTSLP to hTSLPR
[24] = molecular target: T5, human TSLP; test: AlphaScreen, purified ISVD; hTSLP:hTSLPR:hIL7Rα ternary complex
[25] = molecular target: T7, cyno TSLP-Fc; test: SPR (BIAcore T100), Fc fusion captured by anti-huIgG
[26] = molecular target: T8, hTSLP-Fc; test: as above
[27] = molecular target: T8, hTSLP-Fc; test: SPR, hTSLP-hFc
[28] = molecular target: T6, cyno TSLP; test: SPR, cyno TSLP; remark: listed apart in the source
[29] = molecular target: T5, human TSLP; test: SPR, hTSLP; remark: listed apart in the source
[30] = molecular target: T7, cyno TSLP-Fc; test: SPR; the KD column is on cyno TSLP-hFc
[31] = molecular target: T7, cyno TSLP-Fc; test: SPR, cyno TSLP-hFc

B1: F010700003 (bispecific antibody)
chain: EVQLVESGGGLVQPGGSLRLSCAASGFTFNNYAMKWVRQAPGKGLEWVSSITTGGGSTDYADSVKGRFTISRDNRKNTLYLQMNSLKPEDTAVYYCANVPFGYYSEHFSGLSFDYRGQGTLVTVSSGGGGSGGGGSGGGGSGGGGSGGGGSGGGGSGGGGSEVQLVESGGGLVQAGGSLRLSCAASGRTFSSYRMGWFRQAPGKEREFVAALSGDGYSTYTANSVNSRFTISRDNAKNTVYLQMNSLKPEDTAIYYCAAKLQYVSGWSYDYPYWGQGTLVTVSS
notes: Biparatopic anti-IL-13 construct of two VHHs, expressed in Pichia pastoris as FLAG3-HIS6-tagged protein; also called F0107004B06-35GS-F0107004B02; not shown: FLAG3-HIS6 tag
With B1 the “% inhibition” value [1] was 99%, the IC50 [1] was 0.13 nM and the “% inhibition” value [2] was 100%. The IC50 [2] was 3.4 nM and the “IC50, TF1 proliferation assay, 200 pM hIL13” value (from here on “IC50 … 200 pM hIL13”) [3] was 1.2e-08 M.

B2: F010700014 (VHH)
chain: EVQLVESGGGLVQAGGSLRLSCAASGRTFSSYRMGWFRQAPGKEREFVAALSGDGYSTYTANSVNSRFTISRDNAKNTVYLQMNSLKPEDTAIYYCAAKLQYVSGWSYDYPYWGQGTLVTVSSGGGGSGGGGSGGGGSGGGGSGGGGSGGGGSGGGGSEVQLVESGGGLVQAGGSLRLSCAASGRTFSSYRMGWFRQAPGKEREFVAALSGDGYSTYTANSVNSRFTISRDNAKNTVYLQMNSLKPEDTAIYYCAAKLQYVSGWSYDYPYWGQGTLVTVSS
notes: Bivalent anti-IL-13 construct of two VHHs, Pichia pastoris, FLAG3-HIS6-tagged; also called F0107004B02-35GS-F0107004B02; not shown: FLAG3-HIS6 tag
For B2, the “% inhibition” value [1] was 84%, the IC50 [1] was 0.27 nM and the “% inhibition” value [2] was 98%. For the same binder, the IC50 [2] was 4.8 nM and the “IC50 … 200 pM hIL13” value [3] was 9.4e-08 M.

B3: F010700029 (bispecific antibody)
chain: EVQLVESGGGLVQAGGSLRLSCAASGRTFSSYRMGWFRQAPGKEREFVAALSGDGYSTYTANSVNSRFTISRDNAKNTVYLQMNSLKPEDTAIYYCAAKLQYVSGWSYDYPYWGQGTLVTVSSGGGGSGGGGSGGGGSGGGGSGGGGSGGGGSGGGGSEVQLVESGGGLVQPGGSLRLSCAASGFTFNNYAMKWVRQAPGKGLEWVSSITTGGGSTDYADSVKGRFTISRDNRKNTLYLQMNSLKPEDTAVYYCANVPFGYYSEHFSGLSFDYRGQGTLVTVSS
notes: Biparatopic anti-IL-13 construct of two VHHs, Pichia pastoris, FLAG3-HIS6-tagged; also called F0107004B02-35GS-F0107004B06; not shown: FLAG3-HIS6 tag
In the case of B3, the “% inhibition” value [1] is reported as 99%, the IC50 [1] is reported as 0.31 nM and the “% inhibition” value [2] is reported as 100%. For the same binder, the IC50 [2] was 3 nM, the “IC50 … 200 pM hIL13” value [3] was 2e-11 M and the “IC50, TF1 proliferation assay, 200 pM cyno IL13” value [4] was 2.5e-10 M. For the same binder, the “IC50, IL-13 induced A549 eotaxin release assay” value [5] was 0.21 nM and the “IC50, IL-13 induced A549 eotaxin release assay” value [6] was 0.15 nM.

B4: F010700031 (VHH)
chain: EVQLVESGGGLVQPGGSLRLSCAASGFTFNNYAMKWVRQAPGKGLEWVSSITTGGGSTDYADSVKGRFTISRDNRKNTLYLQMNSLKPEDTAVYYCANVPFGYYSEHFSGLSFDYRGQGTLVTVSSGGGGSGGGGSGGGGSGGGGSGGGGSGGGGSGGGGSEVQLVESGGGLVQPGGSLRLSCAASGFTFNNYAMKWVRQAPGKGLEWVSSITTGGGSTDYADSVKGRFTISRDNRKNTLYLQMNSLKPEDTAVYYCANVPFGYYSEHFSGLSFDYRGQGTLVTVSS
notes: Bivalent anti-IL-13 construct of two VHHs, Pichia pastoris, FLAG3-HIS6-tagged; also called F0107004B06-35GS-F0107004B06; not shown: FLAG3-HIS6 tag
With B4 the “% inhibition” value [2] was 99%, the IC50 [2] was 0.66 nM and the “IC50 … 200 pM hIL13” value [3] was 1e-07 M.

B5: F0107004B06 (VHH)
VHH: EVQLVESGGGLVQPGGSLRLSCAASGFTFNNYAMKWVRQAPGKGLEWVSSITTGGGSTDYADSVKGRFTISRDNRKNTLYLQMNSLKPEDTAVYYCANVPFGYYSEHFSGLSFDYRGQGTLVTVSS
notes: Wild-type anti-IL-13 ISVD; also called F010704B06; F107004B06; not shown: c-myc, His6 tag of the purified protein
Work on B5 yielded an IC50 [7] of 6.7 nM, a Kd [8] of 26 nM and a koff [8] of 0.0033 s⁻¹. For the same binder, the kon [8] was 250000 M⁻¹ s⁻¹, the “IC50, IL-13-induced TF-1 proliferation assay” value [9] was 10000 nM and the IC50 [10] was 61 nM. It also gave a koff [11] of 0.0089 s⁻¹ and a koff [12] of 0.0063 s⁻¹.

B6: F027100183 (VHH)
VHH: B5 VHH with L11V, R75S, K87R, V93L
notes: E. coli, IMAC; also called F0107004B06 (L11V, R74S, K83R, V89L)
With B6 the Kd [13] was 27 nM, the koff [13] was 0.0075 s⁻¹ and the kon [13] was 280000 M⁻¹ s⁻¹.

B7: F027100019 (VHH)
VHH: DVQLVESGGGVVQPGGSLRLSCAASGRTFSSYRMGWFRQAPGKEREFVAALSGDGYSTYTANSVKGRFTISRDNSKNTVYLQMNSLRPEDTALYYCAAKLQYVSGWSYDYPYWGQGTLVTVSS
notes: Expressed in E. coli, purified by IMAC; also called F0107004B02 (E1D, L11V, A14P, N64K, S65G, A74S, K83R, I89L)
B7 showed a Kd [14] of 34 nM, a koff [14] of 0.0012 s⁻¹ and a kon [14] of 35000 M⁻¹ s⁻¹. The “IC50 (nM) Eotaxin release assay” value [15] was 47 nM.

B8: F010704076 (VHH)
VHH: EVQLVESGGGLVQPGGSLRLSCAASGSGFGVNILYWYRQAAGIERELIASITSGGITNYVDSVKGRFTISRDNSENTMYLQMNSLRAEDTGVYYCASRNIFDGTTEWGQGTLVTVSS
notes: E. coli, IMAC; also called F0107501A02 (A14P, E16G, A74S, K83R)
Binder B8 has a koff [16] of 6.2e-05 s⁻¹, a koff [17] of 0.0016 s⁻¹ and an IC50 [18] of 0.27 nM.

B9: F0107501A02 (VHH)
VHH: B8 VHH with P14A, G16E, S74A, R86K
notes: Wild-type anti-TSLP ISVD; not shown: c-myc, His6 tag of the purified protein
With B9 the koff [19] was 0.00066 s⁻¹, the koff [20] was 3.6e-05 s⁻¹ and the “IC50, TSLP-induced BaF3 cell proliferation assay” value [21] was over 1000 nM. The “IC50, TSLP-induced BaF3 cell proliferation assay” value [22] was over 1000 nM, the koff [16] was 5.4e-05 s⁻¹ and the koff [17] was 0.0015 s⁻¹. It also gave an IC50 [23] of 0.3 nM, an IC50 [18] of 0.28 nM and an IC50 [24] of 0.35 nM. It also gave a Kd [25] of 25 nM, a koff [25] of 0.0018 s⁻¹ and a kon [25] of 73000 M⁻¹ s⁻¹. For the same binder, the Kd [26] was 0.51 nM, the koff [26] was 5.7e-05 s⁻¹ and the kon [26] was 110000 M⁻¹ s⁻¹.

B10: F027400160 (VHH)
VHH: B8 VHH with L11V, V92L
notes: E. coli, IMAC; also called F0107501A02 (L11V, A14P, E16G, A74S, K83R, V89L)
B10 was tested, and the koff [16] was 0.00012 s⁻¹ and the koff [17] was 0.0043 s⁻¹.

B11: F010704099 (VHH)
VHH: EVQLVESGGGLVQPGGSLRLSCAASGFTFADYDYDIGWFRQAPGKEREGVSCISNRDGSTYYADSVKGRFTISRDNSKNTVYLQMNSLRPEDTAVYYCAVEIHCDDYGVENFDFDPWGQGTLVTVSS
notes: E. coli, IMAC; also called F0107529F10 (A14P, T60A, S71R, A74S, S79Y, K83R)
In the case of B11, the Kd [27] is reported as 0.038 nM, the koff [28] is reported as 0.0018 s⁻¹ and the koff [29] is reported as 7.7e-05 s⁻¹. The “fold lower affinity against parental ISVD F0107529F10” value [30] was 2 fold and the Kd [31] was 3.3 nM.

— patent publication US20220177564A1 (Ablynx, published 2022)
